What was measured:
[1] = molecular target: Alexa 488-labelled, crosslinked recombinant histone octamer (H2A, H2B T112C-Alexa 488, H3 C110A, H4 T71C) (UniProt P06897); experiment: other fluorescence titration; 5 nM Alexa 488-labelled octamer titrated with NP (pentamer concentration); 150 mM NaCl, 1 mM DTT, 0.1 mg/ml BSA, 20 mM Tris-HCl pH 7.5; ligand-depleted model with two pentamers per octamer; apparent
[2] = molecular target: Crosslinked histone octamer (dimethyl suberimidate) (not stated (chicken erythrocyte or recombinant histones)); experiment: native gel or EMSA; 8% native PAGE run from the positive to the negative electrode; fixed histones (10 µM H2A-H2B or H3-H4 dimers, 2.5 µM octamer) with increasing tail domain, 150 mM NaCl, 20 mM Tris-HCl pH 7.6, RT, 1 h
[3] = molecular target: Histone H2A-H2B dimer, natural source (chicken erythrocyte chromatin) (chicken) (UniProt P02263); experiment: as above
[4] = molecular target: Recombinant nucleoplasmin, full length (rNP) (X. laevis) (UniProt P05221); experiment: native gel or EMSA; NP alone on 4-16% native PAGE (Figs 2B and S3); pentamers to decamer

Work on “Egg nucleoplasmin (eNP) from X. laevis, natural hyperphosphorylated pentamer (from UniProt P05221 1-200) (natural protein)” yielded a Kd [1] of 0.04 nM.

“Phosphomimetic C-terminal tail domain of nucleoplasmin (rNP113–200-4D) (from UniProt P05221 113-200) (domain or fragment)” was tested, and the stoichiometry N (C-terminal tails per crosslinked octamer) [2] was 4 and the stoichiometry N (tail domain/H2A-H2B dimer) [3] was 1.

“Recombinant nucleoplasmin lacking the last 50 residues (rNPΔ150–200) (from UniProt P05221 1-149) (domain or fragment)” was tested, and the Kd [1] was 0.27 nM.

“Recombinant nucleoplasmin, full length (rNP) (from UniProt P05221 1-200) (natural protein)” showed a stoichiometry N [4] of 10.

Source: article PMC6602930
